System: latent TGFβ
Assay: Cleavage of latent TGFβ by tPA in cell free assay
Type: biochemical
Conditions: cell free assay (FIG. 22)

B1: tPA: serine protease that converts plasminogen to plasmin (protein, UniProt P00750 36-562, looked up)
Tissue-type plasminogen …: SYQVICRDEKTQMIYQQHQSWLRPVLRSNRVEYCWCNSGRAQCHSVPVKSCSEPRCFNGGTCQQALYFSDFVCQCPEGFAGKCCEIDTRATCYEDQGISYRGTWSTAESGAECTNWNSSALAQKPYSGRRPDAIRLGLGNHNYCRNPDRDSKPWCYVFKAGKYSSEFCSTPACSEGNSDCYFGNGSAYRGTHSLTESGASCLPWNSMILIGKVYTAQNPSAQALGLGKHNYCRNPDGDAKPWCHVLKNRRLTWEYCDVPSCSTCGLRQYSQPQFRIKGGLFADIASHPWQAAIFAKHRRSPGERFLCGGILISSCWILSAAHCFQERFPPHHLTVILGRTYRVVPGEEEQKFEVEKYIVHKEFDDDTYDNDIALLQLKSDSSRCAQESSVVRTVCLPPADLQLPDWTECELSGYGKHEALSPFYSERLKEAHVRLYPSSRCTSQHLLNRTVTDNMLCAGDTRSGGPQANLHDACQGDSGGPLVCLNDGRMTLVGIISWGLGCGQKDVPGVYTKVTNYLDWIRDNMRP
  cleavage of latent TGFβ: can directly and indirectly cleave

From US20230313305A1, “METHODS AND USES OF INFLAMMATORY BOWEL DISEASE BIOMARKERS” (Washington University, priority 2017, published 2023)
